The values below come from the Immune Epitope Database (IEDB).

The first assay addresses HLA-A*02:01. Briefly: IEDB peptide-MHC binding, purified MHC/competitive/radioactivity; ≥ and ≤ were set here for values at or beyond the usual limits of such assays. The note with it: source organism: Hepacivirus hominis.
VLAALAAYCL: the IC50 is 100 nM.

A further assay deals with HLA-A*03:01. Described as above. The note with it: source organism: Hepacivirus hominis.
TLHGPTPLLY: the IC50 turned out to be 112 nM. For the sequence HLIFCHSKKK, the IC50 is 385 nM. Still for that read-out and setting: the figure for WMNSTGFTK is 189 nM; for HLIFCHSKK it is 400 nM. Same read-out and setting: the figure for HLHAPTGSGK is 17 nM; for RLLAPITAY it is 4 nM; for AVCTRGVAK it is 385 nM.

For another assay, the target named is HLA-A*11:01. Described as above. The note with it: source organism: Hepacivirus hominis.
For SVPAEILRK, the IC50 worked out at 13 nM.

What is called IC50 is the point on the concentration scale where inhibition reaches its midpoint.
